The target of data set [1] is T1, Sco3058 (Streptomyces coelicolor, UniProt Q93J45).
T1 sequence (Q93J45 1-400): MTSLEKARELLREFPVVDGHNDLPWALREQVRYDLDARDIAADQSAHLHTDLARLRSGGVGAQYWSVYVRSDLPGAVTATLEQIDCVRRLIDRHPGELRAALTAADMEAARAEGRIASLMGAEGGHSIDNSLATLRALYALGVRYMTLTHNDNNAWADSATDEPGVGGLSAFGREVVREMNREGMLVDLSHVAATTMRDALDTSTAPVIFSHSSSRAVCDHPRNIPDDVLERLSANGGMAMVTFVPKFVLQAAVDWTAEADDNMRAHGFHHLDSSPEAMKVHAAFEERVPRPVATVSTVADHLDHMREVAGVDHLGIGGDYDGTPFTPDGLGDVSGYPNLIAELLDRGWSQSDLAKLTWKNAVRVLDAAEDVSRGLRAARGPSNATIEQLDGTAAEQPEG
Put plainly: ninhydrin-based dipeptidase assay, L-Leu-D-Ala substrate. It counts as biochemical.

Data set [2] deals with T1, Sco3058. The experiment in a line: crystal structure at […] Å. It counts as biochemical.
Substrate in data set [3]: CC(C)C[C@@H](NC(=O)[C@@H](N)Cc1ccc(O)cc1)C(=O)O
Put plainly: purified protein. Conditions: […] Zn2+.

Substrate in data set [4]: CC(C)C[C@H](N)C(=O)N[C@H](C)C(=O)O
The experiment in a line: steady-state kinetics of hydrolysis by purified enzyme. Conditions: […] Zn2+. It counts as biochemical, Streptomyces coelicolor.

Substrate in data set [5]: CC(C)C[C@H](N)C(=O)N[C@H](CCC(=O)O)C(=O)O
The description is as above. It counts as biochemical, Streptomyces coelicolor. Conditions: […] Zn2+.

Substrate in data set [6]: CSCC[C@H](N)C(=O)N[C@H](CC(C)C)C(=O)O
The data set is described as above. Format: biochemical, Streptomyces coelicolor. The settings on record: […] Zn2+.

Substrate in data set [7]: CSCC[C@H](N)C(=O)N[C@H](CCC(=O)O)C(=O)O
The description is as above. It counts as biochemical, Streptomyces coelicolor. The settings on record: […] Zn2+.

Substrate in data set [8]: N=C(N)NCCC[C@H](N)C(=O)N[C@H](CC(=O)O)C(=O)O
Described as above. Format: biochemical, Streptomyces coelicolor. The settings on record: […] Zn2+.

As for `NC(Cc1ccc(O)cc1)P(=O)(O)CC(CC(=O)O)C(=O)O` (racemic) [compound 3, phosphinate pseudodipeptide mimic of Tyr-Asp], in data set [1], the affinity corresponds to a Ki of 1.1 ± 0.2 µM.

Molecule `NC(Cc1ccccc1)P(=O)(O)CC(CC(=O)O)C(=O)O` (racemic) [compound 2, phosphinate pseudodipeptide mimic of Phe-Asp] yielded an inhibition constant Ki in data set [1] of 2.3 ± 0.3 µM.

`O=C(O)CC(O)(CC(=O)O)C(=O)O` [citrate] displayed a Ki in data set [2] of 25000 ± 15000 µM.

B1: Sco3058 (Streptomyces coelicolor A3(2)) (protein)
chain: T1 sequence (Q93J45 1-400)
For the molecule B1, the Km is 170 ± 10 µM in data set [3]; 750 ± 40 µM in data set [4]; 550 ± 30 µM in data set [5]; 560 ± 30 µM in data set [6]; 890 ± 40 µM in data set [7]; 140 ± 20 µM in data set [8]. Moreover, the kcat in data set [3] is 24 s⁻¹; in data set [4], 160 ± 3 s⁻¹; in data set [5], 135 ± 2 s⁻¹; in data set [6], 194 ± 4 s⁻¹; in data set [7], 340 ± 4 s⁻¹; in data set [8] it was 107 ± 3.2 s⁻¹. Also, the kcat/Km in data set [3] is 150000 M⁻¹ s⁻¹; in data set [4], 210000 ± 10000 M⁻¹ s⁻¹; in data set [5], 250000 ± 10000 M⁻¹ s⁻¹; in data set [6], 350000 ± 30000 M⁻¹ s⁻¹; in data set [7], 380000 ± 20000 M⁻¹ s⁻¹; in data set [8], 760000 ± 90000 M⁻¹ s⁻¹.

Broadly, the Ki is a dissociation constant, usually derived from enzyme kinetics or from competition with a known ligand. Low readings indicate a stronger hold on the target, high ones a looser hold on the target. The Km is the substrate concentration at which the rate is half of its maximum. As a reminder, the kcat is the maximal rate divided by the concentration of active sites. For orientation: kcat/Km means the turnover number divided by the Michaelis constant.
